B1: DNA damage-inducible transcript 3 protein (Homo sapiens), P35638 (parent)
chain: MAAESLPFSFGTLSSWELEAWYEDLQEVLSSDENGGTYVSPPGNEEEESKIFTTLDPASLAWLTEEEPEPAEVTSTSQSPHSPDSSQSSLAQEEEEEDQGRTRKRKQSGHSPARAGKQRMKEKEQENERKVAQLAEENERLKQEIERLTREVEATRRALIDRMVNLHQA
B2: Ubiquitin-associated protein 2-like (Homo sapiens), Q14157 (parent)
chain: MMTSVGTNRARGNWEQPQNQNQTQHKQRPQATAEQIRLAQMISDHNDADFEEKVKQLIDITGKNQDECVIALHDCNGDVNRAINVLLEGNPDTHSWEMVGKKKGVSGQKDGGQTESNEEGKENRDRDRDYSRRRGGPPRRGRGASRGREFRGQENGLDGTKSGGPSGRGTERGRRGRGRGRGGSGRRGGRFSAQGMGTFNPADYAEPANTDDNYGNSSGNTWNNTGHFEPDDGTSAWRTATEEWGTEDWNEDLSETKIFTASNVSSVPLPAENVTITAGQRIDLAVLLGKTPSTMENDSSNLDPSQAPSLAQPLVFSNSKQTAISQPASGNTFSHHSMVSMLGKGFGDVGEAKGGSTTGSQFLEQFKTAQALAQLAAQHSQSGSTTTSSWDMGSTTQSPSLVQYDLKNPSDSAVHSPFTKRQAFTPSSTMMEVFLQEKSPAVATSTAAPPPPSSPLPSKSTSAPQMSPGSSDNQSSSPQPAQQKLKQQKKKASLTSKIPALAVEMPGSADISGLNLQFGALQFGSEPVLSDYESTPTTSASSSQAPSSLYTSTASESSSTISSNQSQESGYQSGPIQSTTYTSQNNAQGPLYEQRSTQTRRYPSSISSSPQKDLTQAKNGFSSVQATQLQTTQSVEGATGSAVKSDSPSTSSIPPLNETVSAASLLTTTNQHSSSLGGLSHSEEIPNTTTTQHSSTLSTQQNTLSSSTSSGRTSTSTLLHTSVESEANLHSSSSTFSTTSSTVSAPPPVVSVSSSLNSGSSLGLSLGSNSTVTASTRSSVATTSGKAPPNLPPGVPPLLPNPYIMAPGLLHAYPPQVYGYDDLQMLQTRFPLDYYSIPFPTPTTPLTGRDGSLASNPYSGDLTKFGRGDASSPAPATTLAQPQQNQTQTHHTTQQTFLNPALPPGYSYTSLPYYTGVPGLPSTFQYGPAVFPVAPTSSKQHGVNVSVNASATPFQQPSGYGSHGYNTGVSVTSSNTGVPDISGSVYSKTQQSFEKQGFHSGTPAASFNLPSALGSGGPINPATAAAYPPAPFMHILTPHQQPHSQILHHHLQQDGQTGSGQRSQTSSIPQKPQTNKSAYNSYSWGAN

Variants of: B1
Settings: with G3BP1, Q13283
Target sequence in this assay (Q13283 whole entry, looked up): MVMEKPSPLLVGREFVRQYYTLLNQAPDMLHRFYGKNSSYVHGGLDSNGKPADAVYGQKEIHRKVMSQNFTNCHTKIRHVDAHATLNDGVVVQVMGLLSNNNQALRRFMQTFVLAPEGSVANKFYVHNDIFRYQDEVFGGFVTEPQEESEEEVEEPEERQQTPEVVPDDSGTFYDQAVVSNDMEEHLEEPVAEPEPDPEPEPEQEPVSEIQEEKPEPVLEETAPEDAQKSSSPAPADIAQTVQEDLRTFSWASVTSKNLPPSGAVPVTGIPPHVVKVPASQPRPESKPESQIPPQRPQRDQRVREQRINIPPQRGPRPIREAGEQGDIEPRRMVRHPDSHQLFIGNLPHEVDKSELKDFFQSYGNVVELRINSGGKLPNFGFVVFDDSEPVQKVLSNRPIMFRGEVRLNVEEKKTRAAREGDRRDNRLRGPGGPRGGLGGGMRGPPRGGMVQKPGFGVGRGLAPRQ

Row | Variant | effect of a mutation on the interaction
1 | F10A;G11A | disrupting interaction strength

Variants of: B2
Settings: with G3BP1, Q13283
Target sequence in this assay (Q13283 whole entry, looked up): as above

Row | Variant | effect of a mutation on the interaction
2 | F518A;F523A | disrupting interaction strength

Variants of: B2
Settings: with G3BP1, Q13283
Remark: another data set of the same source
Target sequence in this assay (Q13283 whole entry, looked up): as above

Row | Variant | effect of a mutation on the interaction
3 | F518A;F523A | decreasing interaction strength
